The source of these data is PMC3920835.

For this assay, the target named is Methylibium petroleiphilum PM1 dioxygenase (Mpe_A2762) (Methylibium petroleiphilum PM1) (UniProt A2SJH7). Description: SEC-MALS.

With “Methylibium petroleiphilum PM1 dioxygenase (Mpe_A2762) (from UniProt A2SJH7 1-253) (enzyme)”, the stoichiometry N (in general, a count of units in the complex or per binding partner) amounted to 2.
